Target: T1, B cell maturation antigen (BCMA) (UniProt Q02223 1-54, limits assumed)
T1 construct: also called CD269; TNFRSF17
T1 sequence (looked up): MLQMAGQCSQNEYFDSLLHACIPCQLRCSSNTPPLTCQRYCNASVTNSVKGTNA
Test: not stated (no method given)

B1: BCMA nanobody (BCMA binding domain of NPB5005) (VHH)
VHH: EVQLQASGGGLAQPGGSLRLSCAASGRTFSTYFMAWFRQPPGKGLEYVGGIRWSDGVPHYADSVKGRFTISRDNAKNTVYLQMNSLRAEDTAVYFCASRGIADGSDFGSYGQGTQVTVSS
  Kd: 1 nM

Source: patent US20250195657A1 (NEOMICS PHARMACEUTICALS, published 2025)
